The results in this text go back to patent US20080181886A1 (Genentech, published 2008).

By IC50 is commonly meant the midpoint of a concentration-inhibition curve. High values mean a need for much substance, low ones inhibition by little substance.

First the molecules themselves.
T1: Murine APRIL (mouse, UniProt Q9D777 105-241, limits assumed)
T1 sequence (looked up): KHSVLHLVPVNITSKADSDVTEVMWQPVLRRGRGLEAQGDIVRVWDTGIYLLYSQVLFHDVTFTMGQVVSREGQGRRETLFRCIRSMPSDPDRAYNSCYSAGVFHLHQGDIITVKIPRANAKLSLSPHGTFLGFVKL

T2: TRX-APRIL (mouse, UniProt Q9D777 104-241)
T2 construct: Named only as TRX-APRIL
T2 sequence (looked up): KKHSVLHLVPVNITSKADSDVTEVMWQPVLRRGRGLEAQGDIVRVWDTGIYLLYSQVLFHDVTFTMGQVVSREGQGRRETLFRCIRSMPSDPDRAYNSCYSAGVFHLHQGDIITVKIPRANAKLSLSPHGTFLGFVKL

B1: TACI_d2 (second cysteine-rich domain, CRD2, residues 68-109 of human TACI) (receptor)
chain: GSPWSLSCRKEQGKFYDHLLRDCISCASICGQHPKQCAYFCENKLR
notes: E. coli, cleaved from TRX-His fusion; residue numbers are those of native human TACI (293 aa); also called TACI CRD2

T3 sequence (Q9Y275 82-285 limits assumed): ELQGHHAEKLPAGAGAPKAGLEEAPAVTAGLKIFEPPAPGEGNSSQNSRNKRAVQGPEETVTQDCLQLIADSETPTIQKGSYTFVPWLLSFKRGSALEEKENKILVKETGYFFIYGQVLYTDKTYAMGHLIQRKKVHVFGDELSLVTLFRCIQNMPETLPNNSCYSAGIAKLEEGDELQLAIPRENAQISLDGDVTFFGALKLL

The first assay concerns the target T3, human BAFF (human, UniProt Q9Y275 82-285, limits assumed). Kind of assay: NNS library, phage display.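 Note: ligand versus display occurrence-to-degeneracy ratio and higher means enriched by binding.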
As for SLSCRKEQGKAYDHLLRDCISCASICGQHPKQCAYFCENKLR (receptor, phage library variant, format as m9) [TACI_d2 F78A], the “F' BAFF” value turned out to be 0.

As to SLSCRKEQGKFYDHLLRDCISCASVCGQHPKQCAYFCENKLR (receptor, phage library variant, format as m9) [TACI_d2 I92V], the “F' BAFF” value was determined as 9.

For SLSCRKEQGKVYDHLLRDCISCASICGQHPKQCAYFCENKLR (receptor, phage library variant, format as m9) [TACI_d2 F78V], the “F' BAFF” value amounted to 1.

Regarding SLSCRKEQGKFYDHLLRDCISCASTCGQHPKQCAYFCENKLR (receptor, phage library variant, format as m9) [TACI_d2 I92T], the “F' BAFF” value came to 7.

Another assay deals with T1, Murine APRIL. The experiment in a line: NNS library, phage display.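 Note: ligand versus display occurrence-to-degeneracy ratio and higher means enriched by binding.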
As for SLSCRKEQGKAYDHLLRDCISCASICGQHPKQCAYFCENKLR (receptor, phage library variant, format as m9) [TACI_d2 F78A], the “F' APRIL” value turned out to be 0.

As for SLSCRKEQGKFYDHLLRDCISCASVCGQHPKQCAYFCENKLR (receptor, phage library variant, format as m9) [TACI_d2 I92V], the “F' APRIL” value was 6.

For SLSCRKEQGKVYDHLLRDCISCASICGQHPKQCAYFCENKLR (receptor, phage library variant, format as m9) [TACI_d2 F78V], the “F' APRIL” value worked out at 1.

Regarding SLSCRKEQGKFYDHLLRDCISCASTCGQHPKQCAYFCENKLR (receptor, phage library variant, format as m9) [TACI_d2 I92T], the “F' APRIL” value was 3.

Another assay concerns the target T3, human BAFF. Kind of assay: SPR competition: ligand in solution against immobilized BCMA-Fc.
Protocol: (§1) Surface plasmon resonance (SPR) measurements on a BIAcore 3000 instrument (Pharmacia Biosensor) were used to measure binding affinities of receptors to immobilized APRIL and BAFF by competition binding. […] In all experiments flow cell 1 was ethanolamine-blocked and used as the reference cell. Washing with 10 mM HCl regenerated flow cells between sample injections. […] The concentration of ligand that provided a slope of about 1 for the initial on-rate of the observed sensorgrams was selected as the fixed concentration to be used in the competition experiments. In all experiments where BAFE was the ligand, the buffer used was composed of 10 mM HEPES, pH 7.2, 150 mM NaCl, and 0.005% Tween-20. In all experiments where TRX-APRIL was the ligand selected, the buffer was composed of 20 mM Tris-HCl, pH 8.0, 200 mM NaCl, and 0.005% Tween-20. […] A linear fit of the initial on-rate of the observed sensorgrams was used to calculate the binding rate (V). The IC₅₀ values were calculated using a four-parameter curve fit (y=((m1−m4)/(1+(m0/m3)̂m2))+m4) of the initial binding rates for the receptor/control (Vᵢ/Vₒ) as a function of receptor concentration.
Turning to B1, the IC50 turned out to be 2 nM.

A further assay has as its target T2, TRX-APRIL. The description is as above.
Protocol: as §1
With B1, the 50% inhibitory concentration (IC50) was determined as 6 nM.

The target of a further assay is T3, human BAFF. The experiment in a line: shotgun scan, phage display.
As for SLSCRKEQGKAYDHLLRDCISCASICGQHPKQCAYFCENKLR (receptor, phage library variant, format as m9) [TACI_d2 F78A], the “F (BAFF)” value was found to be 1.1.

As for SLSCRKEQGKFYDHLLRDCISCASVCGQHPKQCAYFCENKLR (receptor, phage library variant, format as m9) [TACI_d2 I92V], the “F (BAFF)” value turned out to be 0.5.

For the molecule SLSCRKEQGKVYDHLLRDCISCASICGQHPKQCAYFCENKLR (receptor, phage library variant, format as m9) [TACI_d2 F78V], the “F (BAFF)” value worked out at 0.8.

For SLSCRKEQGKFYDHLLRDCISCASTCGQHPKQCAYFCENKLR (receptor, phage library variant, format as m9) [TACI_d2 I92T], the “F (BAFF)” value was found to be 0.9.

Regarding SLSCRKEQGKFYDHLLRDCISCASICGQHPKQCAYFCENKLP (receptor, phage library variant, format as m9) [TACI_d2 R109P], the “F (BAFF)” value was found to be 1.2.

With SLSCRKEQGKFYDHLLRDCISCASICGQHPKQCAAFCENKLR (receptor, phage library variant, format as m9) [TACI_d2 Y102A], the “F (BAFF)” value stood at 2.

Consider SLSCRKEQGKFYDHLLRDCISCASICGQHPKQCADFCENKLR (receptor, phage library variant, format as m9) [TACI_d2 Y102D], for which the “F (BAFF)” value was 0.6.

Another assay deals with T1, Murine APRIL. The experiment in a line: shotgun scan, phage display.
Consider SLSCRKEQGKAYDHLLRDCISCASICGQHPKQCAYFCENKLR (receptor, phage library variant, format as m9) [TACI_d2 F78A], for which the “F (APRIL)” value came out at 29.

For SLSCRKEQGKFYDHLLRDCISCASVCGQHPKQCAYFCENKLR (receptor, phage library variant, format as m9) [TACI_d2 I92V], the “F (APRIL)” value amounted to 3.3.

SLSCRKEQGKVYDHLLRDCISCASICGQHPKQCAYFCENKLR (receptor, phage library variant, format as m9) [TACI_d2 F78V]: the “F (APRIL)” value was 5.2.

With SLSCRKEQGKFYDHLLRDCISCASTCGQHPKQCAYFCENKLR (receptor, phage library variant, format as m9) [TACI_d2 I92T], the “F (APRIL)” value is 6.

For the molecule SLSCRKEQGKFYDHLLRDCISCASICGQHPKQCAYFCENKLP (receptor, phage library variant, format as m9) [TACI_d2 R109P], the “F (APRIL)” value amounted to 1.2.

With SLSCRKEQGKFYDHLLRDCISCASICGQHPKQCAAFCENKLR (receptor, phage library variant, format as m9) [TACI_d2 Y102A], the “F (APRIL)” value came to 1.6.

Consider SLSCRKEQGKFYDHLLRDCISCASICGQHPKQCADFCENKLR (receptor, phage library variant, format as m9) [TACI_d2 Y102D], for which the “F (APRIL)” value was found to be 0.8.
